Key:
HeLa Kyoto [1] = test: solubility change mitosis vs G1/S (difference of NP-40 vs SDS log2 ratios) (log2 ratio difference); higher = more soluble in mitosis
HeLa Kyoto [2] = test: thermal stability score vs G1/S (z-score of summed log2 fold changes over temperatures); higher = more thermally stable than in G1/S
HeLa Kyoto [3] = test: melting temperature (median over replicates), in situ; higher = more thermally stable
HeLa Kyoto [4] = test: solubility in G1/S (NP-40 vs SDS abundance) (log2 ratio); higher = more soluble; details: cell cycle stage: G1/S
[5] = cell cycle stage: early G1 (4.5 h after nocodazole release)
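For melting temperature (median over replicates), in situ in this document: HeLa Kyoto cells synchronized by double thymidine or nocodazole block, proteins quantified by TMT10plex mass spectrometry, three independent biological replicates.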
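For solubility change mitosis vs G1/S (difference of NP-40 vs SDS log2 ratios) in this document: synchronized HeLa Kyoto cells (double thymidine block for G1/S, nocodazole release for mitosis), protein amounts in NP-40 versus SDS lysates quantified by mass spectrometry, three biological replicates.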
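For solubility in G1/S (NP-40 vs SDS abundance) in this document: HeLa Kyoto cells arrested at G1/S by double thymidine block, proteins quantified by TMT10plex mass spectrometry in mild NP-40 versus SDS extracts, three biological replicates.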
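For thermal stability score vs G1/S (z-score of summed log2 fold changes over temperatures) in this document: synchronized HeLa Kyoto cells, proteins quantified by TMT10plex mass spectrometry, three biological replicates, mitosis taken 0.5 h after nocodazole release, G1/S directly after double thymidine block.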

MASKGAGMSFSRKSYRLTSDAEKSRVTGIVQEKLLNDYLNRIFSSSEHAPPAATSRKPLNFQNLPEHLDQLLQVDNEEEESQGQVEGRLGPSTVVLDHTGGFEGLLLVDDDLLGVIGHSNFGTIRSTTCVYKGKWLYEVLISSQGLMQIGWCTISCRFNQEEGVGDTHNSYAYDGNRVRKWNVTTTNYGKAWAAGDIVSCLIDLDDGTLSFCLNGVSLGTAFENLSRGLGMAYFPAISLSFKESVAFNFGSRPLRYPVAGYRPLQDPPSADLVRAQRLLGCFRAVLSVELDPVEGRLLDKESSKWRLRGQPTVLLTLAHIFHHFAPLLRKVYLVEAVLMSFLLGIVEKGTPTQAQSVVHQVLDLLWLFMEDYEVQDCLKQLMMSLLRLYRFSPIVPDLGLQIHYLRLTIAILRHEKSRKFLLSNVLFDVLRSVVFFYIKSPLRVEEAGLQELIPTTWWPHCSSREGKESTEMKEETAEERLRRRAYERGCQRLRKRIEVVEELQVQILKLLLDNKDDNGGEASRYIFLTKFRKFLQENASGRGNMPMLCPPEYMVCFLHRLISALRYYWDEYKASNPHASFSEEAYIPPQVFYNGKVDYFDLQRLGGLLSHLRKTLKDDLASKANIVIDPLELQSTAMDDLDEDEEPAPAMAQRPMQALAVGGPLPLPRPGWLSSPTLGRANRFLSTAAVSLMTPRRPLSTSEKVKVRTLSVEQRTREDIEGSHWNEGLLLGRPPEEPEQPLTENSLLEVLDGAVMMYNLSVHQQLGKMVGVSDDVNEYAMALRDTEDKLRRCPKRRKDILAELTKSQKVFSEKLDHLSRRLAWVHATVYSQEKMLDIYWLLRVCLRTIEHGDRTGSLFAFMPEFYLSVAINSYSALKNYFGPVHSMEELPGYEETLTRLAAILAKHFADARIVGTDIRDSLMQALASYVCYPHSLRAVERIPEEQRIAMVRNLLAPYEQRPWAQTNWILVRLWRGCGFGYRYTRLPHLLKTKLEDANLPSLQKPCPSTLLQQHMADLLQQGPDVAPSFLNSVLNQLNWAFSEFIGMIQEIQQAAERLERNFVDSRQLKVCATCFDLSVSLLRVLEMTITLVPEIFLDWTRPTSEMLLRRLAQLLNQVLNRVTAERNLFDRVVTLRLPGLESVDHYPILVAVTGILVQLLVRGPASEREQATSVLLADPCFQLRSICYLLGQPEPPAPGTALPAPDRKRFSLQSYADYISADELAQVEQMLAHLTSASAQAAAASLPTSEEDLCPICYAHPISAVFQPCGHKSCKACINQHLMNNKDCFFCKTTIVSVEDWEKGANTSTTSSAA [RNF123]
solubility change mitosis (log2) (HeLa Kyoto [1]): 0.0631
thermal stability score (HeLa Kyoto [2]; [5]): -0.758
thermal stability score (HeLa Kyoto [2]; cell cycle stage: mitosis): 0.258
melting temperature (HeLa Kyoto [3]; cell cycle stage: G1/S): 50.4 °C
melting temperature (HeLa Kyoto [3]; cell cycle stage: mitosis): 50.3 °C
solubility in G1/S (log2) (HeLa Kyoto [4]): -0.366

MQPDMSLNVIKMKSSDFLESAELDSGGFGKVSLCFHRTQGLMIMKTVYKGPNCIEHNEALLEEAKMMNRLRHSRVVKLLGVIIEEGKYSLVMEYMEKGNLMHVLKAEMSTPLSVKGRIILEIIEGMCYLHGKGVIHKDLKPENILVDNDFHIKIADLGLASFKMWSKLNNEEHNELREVDGTAKKNGGTLYYMAPEHLNDVNAKPTEKSDVYSFAVVLWAIFANKEPYENAICEQQLIMCIKSGNRPDVDDITEYCPREIISLMKLCWEANPEARPTFPGIEEKFRPFYLSQLEESVEEDVKSLKKEYSNENAVVKRMQSLQLDCVAVPSSRSNSATEQPGSLHSSQGLGMGPVEESWFAPSLEHPQEENEPSLQSKLQDEANYHLYGSRMDRQTKQQPRQNVAYNREEERRRRVSHDPFAQQRPYENFQNTEGKGTAYSSAASHGNAVHQPSGLTSQPQVLYQNNGLYSSHGFGTRPLDPGTAGPRVWYRPIPSHMPSLHNIPVPETNYLGNTPTMPFSSLPPTDESIKYTIYNSTGIQIGAYNYMEIGGTSSSLLDSTNTNFKEEPAAKYQAIFDNTTSLTDKHLDPIRENLGKHWKNCARKLGFTQSQIDEIDHDYERDGLKEKVYQMLQKWVMREGIKGATVGKLAQALHQCSRIDLLSSLIYVSQN [RIPK1]
solubility change mitosis (log2) (HeLa Kyoto [1]): -0.114
thermal stability score (HeLa Kyoto [2]; [5]): 0.9
thermal stability score (HeLa Kyoto [2]; cell cycle stage: mitosis): 1.82
melting temperature (HeLa Kyoto [3]; cell cycle stage: G1/S): 48.4 °C
melting temperature (HeLa Kyoto [3]; cell cycle stage: mitosis): 48 °C
solubility in G1/S (log2) (HeLa Kyoto [4]): 0.0577

MASGVTVNDEVIKVFNDMKVRKSSTQEEIKKRKKAVLFCLSDDKRQIIVEEAKQILVGDIGDTVEDPYTSFVKLLPLNDCRYALYDATYETKESKKEDLVFIFWAPESAPLKSKMIYASSKDAIKKKFTGIKHEWQVNGLDDIKDRSTLGEKLGGNVVVSLEGKPL [CFL2]
solubility change mitosis (log2) (HeLa Kyoto [1]): -0.058
thermal stability score (HeLa Kyoto [2]; [5]): -0.937
thermal stability score (HeLa Kyoto [2]; cell cycle stage: mitosis): -3.81
melting temperature (HeLa Kyoto [3]; cell cycle stage: G1/S): 55.1 °C
melting temperature (HeLa Kyoto [3]; cell cycle stage: mitosis): 54.2 °C
solubility in G1/S (log2) (HeLa Kyoto [4]): 0.129

MSDNQSWNSSGSEEDPETESGPPVERCGVLSKWTNYIHGWQDRWVVLKNNALSYYKSEDETEYGCRGSICLSKAVITPHDFDECRFDISVNDSVWYLRAQDPDHRQQWIDAIEQHKTESGYGSESSLRRHGSMVSLVSGASGYSATSTSSFKKGHSLREKLAEMETFRDILCRQVDTLQKYFDACADAVSKDELQRDKVVEDDEDDFPTTRSDGDFLHSTNGNKEKLFPHVTPKGINGIDFKGEAITFKATTAGILATLSHCIELMVKREDSWQKRLDKETEKKRRTEEAYKNAMTELKKKSHFGGPDYEEGPNSLINEEEFFDAVEAALDRQDKIEEQSQSEKVRLHWPTSLPSGDAFSSVGTHRFVQKPYSRSSSMSSIDLVSASDDVHRFSSQVEEMVQNHMTYSLQDVGGDANWQLVVEEGEMKVYRREVEENGIVLDPLKATHAVKGVTGHEVCNYFWNVDVRNDWETTIENFHVVETLADNAIIIYQTHKRVWPASQRDVLYLSVIRKIPALTENDPETWIVCNFSVDHDSAPLNNRCVRAKINVAMICQTLVSPPEGNQEISRDNILCKITYVANVNPGGWAPASVLRAVAKREYPKFLKRFTSYVQEKTAGKPILF [COL4A3BP]
solubility change mitosis (log2) (HeLa Kyoto [1]): -0.167
thermal stability score (HeLa Kyoto [2]; [5]): -0.469
thermal stability score (HeLa Kyoto [2]; cell cycle stage: mitosis): -0.153
melting temperature (HeLa Kyoto [3]; cell cycle stage: G1/S): 50.2 °C
melting temperature (HeLa Kyoto [3]; cell cycle stage: mitosis): 50.1 °C
solubility in G1/S (log2) (HeLa Kyoto [4]): 0.0115

Source: the supplement of paper PMC5998384
